The target in experiment [1] is T1, cynomolgus CD47 ECD (cynomolgus, UniProt A0A2K5X523 19-139).
T1 construct: extracellular domain
Kind of experiment: SPR. (In general: In SPR one partner is held on a chip, and binding of the other changes the refractive index at the surface.)

The target of experiment [2] is T2, mouse CD47 (mouse, UniProt Q61735 19-140, limits assumed).
T2 sequence (looked up): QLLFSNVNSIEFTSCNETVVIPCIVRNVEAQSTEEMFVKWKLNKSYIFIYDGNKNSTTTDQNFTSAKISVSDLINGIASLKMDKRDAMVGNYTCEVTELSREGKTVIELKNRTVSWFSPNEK
Kind of experiment: SPR.

Experiment [3] has as its target T3, human CD47 ECD (human, UniProt Q08722 19-139).
T3 construct: extracellular domain; also called human CD47 extracellular domain
Kind of experiment: SPR.

Experiment [4] addresses T4, human CD47 expressed on the cell surface (human, UniProt Q08722 19-323). Kind of experiment: cell-based or functional assay.
Experiment [5] addresses T5, human CD20 on cells (human, UniProt P11836 1-297).
T5 construct: whole, on cells; The CD20+ cells in these assays also carry CD47; also called CD20 on B cells and Raji cells
T5 sequence (looked up): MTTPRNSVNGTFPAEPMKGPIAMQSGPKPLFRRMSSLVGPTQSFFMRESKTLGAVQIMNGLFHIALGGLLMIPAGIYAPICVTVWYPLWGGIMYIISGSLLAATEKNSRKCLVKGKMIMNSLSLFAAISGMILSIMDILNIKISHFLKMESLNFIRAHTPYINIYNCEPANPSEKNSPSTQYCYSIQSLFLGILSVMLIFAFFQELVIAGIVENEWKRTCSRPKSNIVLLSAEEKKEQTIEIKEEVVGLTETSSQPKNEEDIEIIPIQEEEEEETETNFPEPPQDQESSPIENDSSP
Kind of experiment: binding to Raji cells (CD20+/CD47+), MFI on the sheet (the legend paragraph 49 says SPR); the signal is not resolved between the CD20 and CD47 arms.

Experiment [6] deals with T4, human CD47 expressed on the cell surface. Kind of experiment: blocking of human SIRPα binding to OCI-Ly3 cells; competitor SIRPα at a saturating concentration, secondary antibody detection; OCI-Ly3 cells (CD20+ DLBCL line); blocking of human SIRPα binding.
Experiment [7] has the same target. Kind of experiment: blocking of human SIRPα binding to Raji cells; competitor SIRPα at a saturating concentration, secondary antibody detection; Raji cells (CD47+/CD20+ Burkitt's lymphoma line); blocking of human SIRPα binding.
Experiment [8] shares this target. Kind of experiment: cell-based or functional assay. This is another data set of the same source.
In experiment [9] the target is T3, human CD47 ECD. Kind of experiment: column 'Human CD47 KD (µM)'; the sheet names no assay (SPR per paragraph 7 and paragraph 162).
Experiment [10] addresses T4, human CD47 expressed on the cell surface. Kind of experiment: blocking of human SIRPα binding to OCI-Ly3 cells; competitor SIRPα (FIG. 21).

Changes are numbered by the printed parent chain.

B1: TPP-1360 (bispecific antibody, human IgG1, kappa)
light 1: NIQMTQSPSSLSASVGDRVTITCRASQDIHRYLSWFQQKPGKVPKHLIYRESRFVDGVPSRFSGSGSGTEFTLTISSLQPEDFATYYCLQYDEFPYTFGGGTKVEIKRTVAAPSVFIFPPSDEELKSGTASVVCWLNNFYPREAKVQWKVDNALQSGNSEESVTEQDSKDSTYSLSSTLELSKADYEKHKVYACEVTHQGLSSPVTKSFNRGEC
heavy 1: QMQLVQSGAEVKKPGSSVKVSCKASGFNIKDYYLHWVRQAPGKGLEWMGWIDPDQGDTYYAQKFQGRVTITRDRSTSTAYMELRSLRAEDTAVYYCNAAYGESSYPMDYWGQGTLVTVSSASTKGPSVFPLAPSSKSTSGGTAALGCLVKDYFPEPVTVSWNSGALTSGVHTFPAVLKSSGLYSLSSVVTVPSSSLGTQTYICNVNHKPSNTKVDKKVEPKSCDKTHTCPPCPAPELLGGPSVFLFPPKPKDTLMISRTPEVTCVVVDVSHEDPEVKFNWYVDGVEVHNAKTKPREEQYNSTYRVVSVLTVLHQDWLNGKEYKCKVSNKALPAPIEKTISKAKGQPREPQVYVLPPSREEMTKNQVSLLCLVKGFYPSDIAVEWESNGQPENNYLTWPPVLDSDGSFFLYSKLTVDKSRWQQGNVFSCSVMHEALHNHYTQKSLSLSPGK
light 2: QIVLSQSPAILSASPGEKVTMTCRASSSVSYIHWFQQKPGSSPKPWIYATSNLASGVPVRFSGSGSGTSYSLTISRVEAEDAATYYCQQWTSNPPTFGGGTKLEIKRTVAAPSVAIFPPSDERLKSGTASVVCVLNNFYPREAKVQWKVDNALQSGNSQESVTEQDSKDSTYSLSSRLTLSKADYEKHKVYACEVTHQGLSSPVTKSFNRGEC
heavy 2: QVQLQQPGAELVKPGASVKMSCKASGYTFTSYNMHWVKQTPGRGLEWIGAIYPGNGDTSYNQKFKGKATLTADKSSSTAYMQLSSLTSEDSAVYYCARSTYYGGDWYFNVWGAGTTVTVSAASTKGPSVFPLAPSSKSTSGGTAWLGCEVTDYFPEPVTVSWNSGALTSGVHTFPAVLESSGLYSLSSVVTVPSSSLGTQTYICNVNHKPSNTKVDKKVEPKSCDKTHTCPPCPAPELLGGPSVFLFPPKPKDTLMISRTPEVTCVVVDVSHEDPEVKFNWYVDGVEVHNAKTKPREEQYNSTYRVVSVLTVLHQDWLNGKEYKCKVSNKALPAPIEKTISKAKGQPREPQVYVYPPSREEMTKNQVSLTCLVKGFYPSDIAVEWESNGQPENNYKTTPPVLDSDGSFALVSKLTVDKSRWQQGNVFSCSVMHEALHNHYTQKSLSLSPGK
notes: IgG1 1+1 heterodimer: one detuned anti-CD47 arm and one rituximab-derived anti-CD20 arm; also called CD47×CD20 bispecific; CD47×CD20 IgG1
Usually Kd stands for the equilibrium constant for the complex coming apart. As a reminder, the EC50 is the midpoint of the concentration-response curve. The low end stands for an effect from little substance, the high end for a need for much substance. With B1, the Kd came to 4510 nM in [1] and 1700 nM in [3]. In addition, the binding result in experiment [2] is “no binding”; in experiment [5], “binds”. Also, the “fold decrease in affinity relative to the parental anti-CD47 binder” value in experiment [3] was roughly 350 fold. Besides, the “IC50 of activation of macrophage phagocytosis, OCI-Ly3 cell line” value in experiment [4] is 1.4 nM. Further, the “IC50 of activation of macrophage phagocytosis, Raji cell line” value in experiment [4] stood at 1.8 nM. For the same molecule, the concentration for a half-maximal effect (EC50) in experiment [6] was found to be 1.3 nM; in experiment [7] it was 1.64 nM.

B2: TPP-1361 (bispecific antibody, human IgG1, kappa)
light 1: B1 light 1 with R24Q, K39D, K42T, K45Q
heavy 1: B1 heavy 1 with K43Q, R84A, R87T
light 2: B1 light 2
heavy 2: B1 heavy 2
notes: IgG1 1+1 heterodimer; also called CD47×CD20 bispecific
Take B2: in experiment [8], the “EC50 of macrophage phagocytosis of OCI-Ly3 cells (column 'OCI-Ly3 Mφ EC50 (µg/mL)')” value is 0.5 µg/mL and the “EC50 of macrophage phagocytosis of OCI-Ly3 cells, repeat (column 'OCI-Ly3 Mφ EC50 (µg/mL) Repeat')” value amounted to 0.45 µg/mL. In addition, the Kd in [9] stood at 2530 nM.

B3: TPP-1367 (bispecific antibody, human IgG1, kappa)
anti-CD47 light chain: B1 light 1 with E51A, S52N, F54L, D56S
anti-CD47 heavy chain: B1 heavy 1
anti-CD20 light chain: B1 light 2
anti-CD20 heavy chain: B1 heavy 2
notes: IgG1 1+1 heterodimer; also called CD47/CD20 TPP1367; CD47×CD20 bispecific
On to B3, for which, in experiment [8], the “EC50 of macrophage phagocytosis of OCI-Ly3 cells (column 'OCI-Ly3 Mφ EC50 (µg/mL)')” value was 0.064 µg/mL and the “EC50 of macrophage phagocytosis of OCI-Ly3 cells, repeat (column 'OCI-Ly3 Mφ EC50 (µg/mL) Repeat')” value was 0.046 µg/mL. The equilibrium dissociation constant (Kd) in [9] was found to be 430 nM.

B4: TPP-23 (408_437 with IgG1) (antibody, V domains shown)
VH: QMQLVQSGAEVKKPGSSVKVSCKASGFNIKDYYLHWVRQAPGKGLEWMGWIDPDQGDTEYAQKFQGRVTITRDRSTSTAYMELRSLRAEDTAVYYCNAAYGSSSYPMDYWGQGTLVTVSS
VL: NIQMTQSPSSLSASVGDRVTITCRASQDIHRYLSWFQQKPGKVPKHLIYRANRLVSGVPSRFSGSGSGTEFTLTISSLQPEDFATYYCLQYDEFPYTFGGGTKVEIK
notes: Monospecific IgG1 with the 408_437 Fab; also called parental CD47 mAb
By IC50 is commonly meant the concentration that gives 50% inhibition. Low readings indicate higher potency, high ones lower potency. B4: in experiment [10], the half-maximal inhibitory concentration (IC50) is 0.11 nM.

(Values after patent publication US20220162330A1 (CELGENE, published 2022).)
